Results on 1 molecule are retold here after US20140255414A1 (PROBIODRUG, published 2014).

Square brackets hold non-standard residues; d marks the D form. pGlu = O=C1CC[C@@H](C(=O)O)N1; PEG = not defined here

The target of one assay is T1, Aβ(pE11-30) peptide (N-terminal pyroglutamate (Aβ position 11)).
T1 construct: Synthesized peptide; Amine-coupled to a CM5 chip for SPR, or adsorbed to the microplate for the direct ELISA
T1 peptide: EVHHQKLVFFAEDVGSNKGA
Description: SPR (Biacore 3000), purified antibody 0.04-10 µg/ml, 30 µl/min for 300 s, CM5 chip with immobilized Aβ(pE11-30); signal taken at the end of the dissociation phase, non-coated flow cell subtracted. The protocol: Then the coupling of peptide followed. At first 10 μg/ml peptide Aβ(pE11-30) in 10 mM potassiumdihydrogenorthophosphate pH 6 was injected with a flow rate of 10 μl/min for 5 min. Because of the low signal rise the peptide was applied again with a higher concentration diluted in a solution with pH 5. 50 μg/ml peptide Aβ(pE11-30) in 10 mM sodium acetate pH 5 was injected with a flow rate of 10 μl/min for 20 min. A mild acid pH was chosen for coupling to provide a pre-concentration of the peptide (positive net charge) at the sensor surface (carboxyl group negative net charge) by electrostatic attraction. The covalent bond of the peptide was formed by the reaction of the two amino acids lysine (at peptide position 16 and 28) with the activated carboxyl group at chip surface. Excess reactive ester groups were deactivated with 1 M ethanolamine pH 8.5 with a flow rate of 10 μl/min for 10 min. Non-immobilized peptides were removed by injection of 0.1 M HCl (3×10 μl) and subsequently the chip was rinsed over night with running buffer. At the end the signal was about 1000 Response Units (RU) whereby the chip surface was saturated with the peptide.
For the measurement of anti Aβ11(pE) antibody concentration a CM5 chip, which was coated with Aβ(pE11-30) was used. The chip surface was saturated with the peptide and the signal was about 1000 Response Units (RU) (see section 1.3.3.1). […]

The target in the next assay is T2, Aβ(pE11-18)-PEG peptide (reading uncertain).
T2 construct: The PEG attachment is not described further
T2 peptide: [pGlu]VHHQKLV-{PEG}
Description: ITC at 20 °C, peptide titrated into antibody eluted with KSCN gradient. The protocol: The measurement of heat of reaction was performed at 20° C. Furthermore the heat of reaction was determined which was only generated by dilution of the antigen through the titration into ITC buffer (pH=7.1). Therefore the antigen was injected into the sample cell filled with ITC buffer. The heat of reaction which was generated during the titration of the antigen to the antibody was corrected about this value. The analysis of raw data and the determination of the association constant (KA), reaction stoichiometry (n), binding enthalpy (ΔH) and entropy (ΔS) was performed with Origin Software of MicroCal.
To characterize the binding of anti Aβ11(pE) antibody at the Aβ(pE11-18)-PEG peptide the method of Isothermal Titration calorimetry (ITC) was used (see section 1.3.4). The antibody which was eluted from protein G column with KSCN-gradient (pH 7.0) and 0.1 M glycine-HCl (pH 2.7) was analyzed. With ITC the reaction stoichiometry (N), association constant (KA), binding enthalpy (ΔH) as well as the entropy (ΔS) were determined. The peptide was titrated to anti Aβ11(pE) antibody in the ITC MicroCalorimeter as described in section 1.3.4.2. […] The reaction partners interact and heat is released or absorbed in direct proportion to the amount of binding events. Each injection of antigen leads to change of temperature. To compensate the temperature difference between the sample and reference cell the addition or removal of heat to the sample cell occurs and serves as measurement signal.
At first the heat of the Aβ(pE11-18)-PEG dilution in ITC buffer was determined (see FIG. 16, upper trace). […] Afterwards the peptide Aβ(pE11-18)-PEG was titrated to anti Aβ11(pE) antibody in the sample cell (see FIG. 16, lower trace). The total heat release after each injection was determined by integration of the area between each peak and baseline. Then the heat of dilution (see FIG. 16, upper trace) was subtracted from the total heat release of each injection.

B1: monoclonal mouse anti Aβ11(pE) antibody Aβ 13-11-6 (clone 13), Deposit No. DSM ACC 3100 (antibody, V domains shown)
VH: QVQLQQPGTELVKPGASVKLSCKASGFTFTSYWMHWVRQRPGQGLEWIGEINPSNGRTNYNEKFKSKATLTVDKSSSTAYMQLSSLTSEDSEVYYCARGDLAWDWSAYWGQGTLVTVSA
VL: DIVMSQSPSSLAVSAGEKVTMSCKSSQSLFYSRTRKNYLAWYQQKPGQSPKLLIYWASTRESGVPDRFTGSGSGTDFTLTISSVQAEDLAVYYCKQSYNLWSFGGGTKLEIKR
notes: The KSCN-eluted and glycine-HCl-eluted preparations are the same molecule; also called pEVHH-59025 13-11-6; mAb mouse anti Aβ11(pE)
Consider B1, for which the 50% effective concentration (EC50 (read off the curve)) with Aβ(pE11-30) peptide is roughly 1 µg/mL. Also, in the assay with Aβ(pE11-18)-PEG peptide, the “-TΔS” value is -1.27 kcal/mol, the Ka was found to be 1.27e+07 M⁻¹ and the “Stoichiometry (N)” value was 1.88.
